B1: murine signal regulatory protein α (SIRPα) on macrophages (receptor, mouse, UniProt P97797 32-513, looked up)
chain: KELKVTQPEKSVSVAAGDSTVLNCTLTSLLPVGPIRWYRGVGPSRLLIYSFAGEYVPRIRNVSDTTKRNNMDFSIRISNVTPADAGIYYCVKFQKGSSEPDTEIQSGGGTEVYVLAKPSPPEVSGPADRGIPDQKVNFTCKSHGFSPRNITLKWFKDGQELHPLETTVNPSGKNVSYNISSTVRVVLNSMDVNSKVICEVAHITLDRSPLRGIANLSNFIRVSPTVKVTQQSPTSMNQVNLTCRAERFYPEDLQLIWLENGNVSRNDTPKNLTKNTDGTYNYTSLFLVNSSAHREDVVFTCQVKHDQQPAITRNHTVLGFAHSSDQGSMQTFPDNNATHNWNVFIGVGVACALLVVLLMAALYLLRIKQKKAKGSTSSTRLHEPEKNAREITQVQSLIQDTNDINDITYADLNLPKEKKPAPRAPEPNNHTEYASIETGKVPRPEDTLTYADLDMVHLSRAQPAPKPEPSFSEYASVQVQRK
notes: whole, on cells; Endogenous protein of WT mouse macrophages; In the co-immunoprecipitations it is tyrosine-phosphorylated in its cytoplasmic ITIMs (SIRPα pY); also called murine SIRPα; surface signal regulatory protein α

Key:
[1] = target: T1, SHP-1 (SH2-containing tyrosine phosphatase) of mouse macrophages (mouse, UniProt P29351 1-595, limits assumed); test: SIRPα immunoprecipitation from LPS- or IL-17-treated WT PEM lysates, WB for SHP-1
T1 construct: Detected by Western blot in SIRPα immunoprecipitates
T1 sequence (P29351 whole entry): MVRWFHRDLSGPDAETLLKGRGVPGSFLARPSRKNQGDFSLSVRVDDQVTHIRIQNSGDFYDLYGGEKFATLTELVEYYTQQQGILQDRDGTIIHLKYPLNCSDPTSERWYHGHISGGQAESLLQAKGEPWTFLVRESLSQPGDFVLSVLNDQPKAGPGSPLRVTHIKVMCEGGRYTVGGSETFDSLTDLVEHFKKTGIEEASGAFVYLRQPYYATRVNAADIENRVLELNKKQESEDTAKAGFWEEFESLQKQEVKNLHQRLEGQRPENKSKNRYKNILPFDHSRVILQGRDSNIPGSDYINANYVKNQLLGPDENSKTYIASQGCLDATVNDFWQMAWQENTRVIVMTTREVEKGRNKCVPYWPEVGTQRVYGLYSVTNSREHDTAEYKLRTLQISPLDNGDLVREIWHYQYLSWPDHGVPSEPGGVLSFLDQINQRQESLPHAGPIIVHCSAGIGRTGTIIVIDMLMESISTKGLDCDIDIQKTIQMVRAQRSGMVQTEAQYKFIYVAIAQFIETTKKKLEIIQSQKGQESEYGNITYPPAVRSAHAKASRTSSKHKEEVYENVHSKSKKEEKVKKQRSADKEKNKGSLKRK
Description: FIGS. 4A-4E include data related to our experiments on macrophage phagocytic plasticity. FIG. 4A is a panel of illustrative line graphs showing that IL-10 inhibits macrophage phagocytosis toward “self.” PEMs were treated with LPS and activating cytokines along with various concentrations of IL-10 before testing their ability to phagocytose RBCs. FIG. 4B illustrates the phagocytic plasticity of WT red pulp macrophages. […] Treatments of cultured macrophages with LPS and IL-17 re-elicited their phagocytosis toward RBCs. […] Error bars are ±SEM. ***P<0.001 vs. freshly isolated splenic macrophages. FIG. 4D includes microscopic images of RBC phagocytosis by LPS- and IL-17-treated splenic macrophages. […] WT PEMs treated with LPS or IL-17 were further treated with Cd47⁺ RBCs or Cd47-AP (10 min, 37° C.) followed by cell lysis, SIRPα immunoprecipitation, and WB detection of SIRPα phosphorylation (SIRPα^pY) and SHP-1 association. Data presented in each panel represent at least three independent experiments with n≥4, if applicable.

[2] = target: B1; test: note on the reagent used to ligate SIRPα on WT macrophages (FIG. 10)

Binder | binding result [1] | binding result [2]
B1 | binds | 
mCD47-AP, soluble murine CD47 extracellular domain fusion protein (other, mouse, UniProt Q61735 19-140, looked up, not shown: large carriers, extracellular domain) QLLFSNVNSIEFTSCNETVVIPCIVRNVEAQSTEEMFVKWKLNKSYIFIYDGNKNSTTTDQNFTSAKISVSDLINGIASLKMDKRDAMVGNYTCEVTELSREGKTVIELKNRTVSWFSPNEK |  | binds

Reference: US20190134089A1 (GEORGIA STATE UNIVERSITY RESEARCH FOUNDATION, published 2019)
